Assay results as given in patent publication US20060141546A1, “Bacterial test method by glycated label binding” (priority 2002, published 2006).

Assays:
[1] = tested on: Coagulase negative staphylococcus sp.; assay: ALP binding compared to Sf (Table 1)
Description: (§1) Bacterial cells ([…] to 10^8 cells/mL) were washed twice with water after centrifugation to separate the cells into a packed pellet from supernatant liquid. The washed cells in pellet form were suspended in 40 μL water and 10 μL of aqueous bovine intestinal alkaline phosphatase (ALP) was added (2 μg or […]). The mixture was left at room temperature for 30 minutes and then centrifuged, after which the bacterial pellets were washed with water 4-5 times (50 μL). All the washing supernatants were combined. A blank without cells was diluted in the same way. The final pellets were suspended in 50 μl water and both supernatants and cell suspensions were assayed for detection of ALP binding using 2.5 μl of 0.005 M para-nitrophenol phosphate (PNPP) in Tris or EPPS buffer at pH 7.5. The hydrolysis of the substrate results in yellow (PNPP) or blue-green (BCIP) color that is directly proportional to the amount of ALP bound to the bacteria. Alkaline phosphatase (ALP) activity was tested using common substrates such as BCIP (bromo-chloro-indolyl-phosphate) forming a blue/green color in Tris buffer, pH 7.5. After 10 minutes at room temperature the samples were read in a plate reader (Biotek Powerwave Absorbance Reader) at a wavelength of 405 nm. The parallel set of bacteria was run without addition of ALP as controls.
(§2) The bacteria used to illustrate the invention represent the extremes of gram positive (S. facaelis) and gram negative (E. coli) bacteria. […] The nature of the difference in the cell walls is greatest between the gram negative and positive forms of bacteria.

Enterococcus sp. = assay: ALP binding compared to Sf (Table 1)
Description: as §1, §2

Lactobacillus = assay: ALP binding compared to Sf (Table 1)
Description: as §1, §2

Group B streptococcus = assay: ALP binding compared to Sf (Table 1)
Description: as §1, §2

[2] = tested on: Staphylococcus aureus & saprophyicus; assay: ALP binding compared to Sf (Table 1)
Description: as §1, §2

Streptococcus viridans = assay: ALP binding compared to Sf (Table 1)
Description: as §1, §2

[3] = tested on: Yeasts including Candida albicans; assay: ALP binding compared to Sf (Table 1)
Description: as §1, §2

bacteria = assay: Effect of divalent cations on ALP binding to bacteria (Example 7, Table 5, FIG. 12)
Description: Bacterial cells (1 to 4.5×10^7 cells/mL) were washed twice with water after centrifugation to separate cells into a packed pellet from the supernatant liquid. The washed cells in pellet form were suspended in 20 μL of EPPS buffer (50 mM at pH 8.0) and 30 μL of water. […]
The mixture of glycated protein and bacterial cells was left at 25° C. for 15 minutes. The mixture was then centrifuged at 30,000 rpm for 30 minutes after which the bacterial cells formed a pellet at the bottom of the tube and were washed with water 4-5 times (50 μL). Centrifugation allows separation of glycoprotein bound to the bacteria cells from unbound glycated protein(s).
After washing, the bacterial pellets were suspended in 50 μL of borate buffer (25 mM at pH 9.0). A 5 μL aliquot of the suspension was assayed for detection of ALP binding by adding 5 μL of para-nitrophenol phosphate (PNPP, 100 mM), 50 μL sodium borate buffer (25 mM at pH 9.0) and 140 μL of water. […] The color was read at 405 nm using an ELISA plate reader between 15-30 min; the absorbance is directly proportional to the amount of ALP bound to the bacteria cell.

B1: ALP: bovine intestinal alkaline phosphatase, glycoprotein enzyme that binds bacteria and serves as label (protein, UniProt P19111 20-506, looked up)
Intestinal-type alkaline …: LVPVEEEDPAFWNRQAAQALDVAKKLQPIQTAAKNVILFLGDGMGVPTVTATRILKGQMNGKLGPETPLAMDQFPYVALSKTYNVDRQVPDSAGTATAYLCGVKGNYRTIGVSAAARYNQCKTTRGNEVTSVMNRAKKAGKSVGVVTTTRVQHASPAGAYAHTVNRNWYSDADLPADAQMNGCQDIAAQLVNNMDIDVILGGGRKYMFPVGTPDPEYPDDASVNGVRKRKQNLVQAWQAKHQGAQYVWNRTALLQAADDSSVTHLMGLFEPADMKYNVQQDHTKDPTLQEMTEVALRVVSRNPRGFYLFVEGGRIDHGHHDDKAYMALTEAGMFDNAIAKANELTSELDTLILVTADHSHVFSFGGYTLRGTSIFGLAPSKALDSKSYTSILYGNGPGYALGGGSRPDVNDSTSEDPSYQQQAAVPQASETHGGEDVAVFARGPQAHLVHGVEEETFVAHIMAFAGCVEPYTDCNLPAPTTATSIPD
What does the source list for B1?
ALP binding relative to sf. [1]: 88%; ALP binding relative to sf. (Enterococcus sp.): 100%; ALP binding relative to sf. (Lactobacillus): 100%; ALP binding relative to sf. (Group B streptococcus): 96%; ALP binding relative to sf. [2]: 100%; ALP binding relative to sf. (Streptococcus viridans): 102%; ALP binding relative to sf. [3]: 93%; O.D. at 405 nm, With ALP (bacteria; No. cation): 0.30 O.D.; bacteria concentration at which ALP binding could be monitored (bacteria; different strains of bacteria, 1 mM Zn^2+, FIG. 12): 10^5
